This is an account of results in IntAct's records for PubMed 24358019.

B1: RNA polymerase sigma factor RpoH (Escherichia coli (strain K12)), P0AGB3 (parent)
chain: MTDKMQSLALAPVGNLDSYIRAANAWPMLSADEERALAEKLHYHGDLEAAKTLILSHLRFVVHIARNYAGYGLPQADLIQEGNIGLMKAVRRFNPEVGVRLVSFAVHWIKAEIHEYVLRNWRIVKVATTKAQRKLFFNLRKTKQRLGWFNQDEVEMVARELGVTSKDVREMESRMAAQDMTFDLSSDDDSDSQPMAPVLYLQDKSSNFADGIEDDNWEEQAANRLTDAMQGLDERSQDIIRARWLDEDNKSTLQELADRYGVSAERVRQLEKNAMKKLRAAIEA
partner: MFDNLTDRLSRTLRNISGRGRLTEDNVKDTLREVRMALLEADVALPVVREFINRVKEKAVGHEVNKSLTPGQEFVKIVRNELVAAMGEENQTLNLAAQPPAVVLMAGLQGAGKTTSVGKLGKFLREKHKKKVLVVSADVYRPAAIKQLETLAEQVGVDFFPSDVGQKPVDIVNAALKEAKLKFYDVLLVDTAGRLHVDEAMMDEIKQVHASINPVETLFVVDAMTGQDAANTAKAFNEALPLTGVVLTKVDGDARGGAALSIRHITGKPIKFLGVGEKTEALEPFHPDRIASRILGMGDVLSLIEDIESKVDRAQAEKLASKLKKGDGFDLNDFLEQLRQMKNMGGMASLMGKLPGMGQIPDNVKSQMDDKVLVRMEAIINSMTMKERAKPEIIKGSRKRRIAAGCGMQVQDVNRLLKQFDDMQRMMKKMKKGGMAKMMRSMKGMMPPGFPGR

Variants of B1 are the subject of the experiment. Particulars: with srp54_ecoli ffh.
Consider MTDKMQSLALAPVGNLDSYIRAANAWPMLSADEERALAEKLHYHGDLEAAKTLNLSHLRFVVHIARNYAGYGLPQADLIQEGNIGLMKAVRRFNPEVGVRLVSFAVHWIKAEIHEYVLRNWRIVKVATTKAQRKLFFNLRKTKQRLGWFNQDEVEMVARELGVTSKDVREMESRMAAQDMTFDLSSDDDSDSQPMAPVLYLQDKSSNFADGIEDDNWEEQAANRLTDAMQGLDERSQDIIRARWLDEDNKSTLQELADRYGVSAERVRQLEKNAMKKLRAAIEA [I54N], for which the “effect of a mutation on the interaction” value is on record as “decreasing interaction strength”.
